Measurements published in the RNAGym collection of RNA variant scans (doi:10.7554/elife.90254).

B1: OR4K15 (parent)
chain: GUUAACGGUCAUAGGCCAUGGAAACUAGGAGCACCAUUUCGCUGCCAGUGAAGAAAUGAACAAAGAAAAUCUGGGCCAGGCAGGCAUCAAAAGAAAUAGUCUUGCGCUCAACCAGAAAGUCUGUAAUCAUUUUAAGGGUA

Variants of: B1
Assay: self-cleavage, relative activity (ratio to wild type); higher = more cleavage; in vitro, sequencing; the parent is a self-cleaving ribozyme

First: G14U A126G
Second: A18C A23G
The self-cleavage of the first is higher: 1.1 for the first, 0.81 for the second.

First: A18G A117U
Second: A18G U122A
The self-cleavage of the first is higher: 1.01 for the first, 0.94 for the second.

First: A18U U120C
Second: C17U A67G
The self-cleavage of the first is lower: 1.1 for the first, 1.26 for the second.

Compared with C16U U102C, U19A U100C is lower in self-cleavage: 2.01 for the first, 1.68 for the second.

Compared with A18C A54G, C17U A110U is higher in self-cleavage: 0.89 for the first, 1.55 for the second.

Compared with C16U A18U, A18G U103C is lower in self-cleavage: 1.52 for the first, 1.04 for the second.

Going from A18G A118G to A18G A118C, the self-cleavage falls from 1.34 to 0.27.

Going from C17U A117G to C17U A116G, the self-cleavage falls from 1.84 to 0.47.

Going from A18G A114C to U19A A94G, the self-cleavage rises from 0.05 to 1.89.

Going from A18G C109U to A18G C109A, the self-cleavage falls from 0.82 to 0.34.

Going from A18G A33G to G15A A54G, the self-cleavage rises from 0.97 to 1.41.

Compared with G14U U37C, A18U C128U is higher in self-cleavage: 1.24 for the first, 1.55 for the second.

Going from A18G A52G to A18G A52U, the self-cleavage falls from 1.67 to 1.21.

Going from G14U A111G to A18G U70C, the self-cleavage rises from 0.05 to 0.57.

Compared with A18G G65U, G15A A27G is higher in self-cleavage: 1.18 for the first, 1.23 for the second.

Compared with G14U A24G, G14U A22G is lower in self-cleavage: 1.23 for the first, 1.12 for the second.

Compared with A18U U72C, A18G A36U is higher in self-cleavage: 0.1 for the first, 1.39 for the second.

Compared with C17A G20A, G15C U49C is higher in self-cleavage: 1.56 for the first, 1.78 for the second.

First: C17A U108C
Second: A18U A66G
The self-cleavage of the first is lower: 0.02 for the first, 1.5 for the second.

Going from A18U A66C to G15C A91U, the self-cleavage falls from 1.22 to 0.88.

First: C16U A90G
Second: G14C A55G
The self-cleavage of the first is higher: 1.55 for the first, 1.34 for the second.

Compared with U19A A78G, G14U A33U is higher in self-cleavage: 0.31 for the first, 1.38 for the second.

Compared with A18U C105U, U19A U120G is higher in self-cleavage: 0.28 for the first, 1.35 for the second.

Compared with C16U A69G, C16U A69U is lower in self-cleavage: 0.74 for the first, 0.66 for the second.

First: G15U A62G
Second: G15A A92G
The self-cleavage of the first is higher: 2.71 for the first, 1.65 for the second.

Compared with U19A A36G, G14U A135C is higher in self-cleavage: 1.19 for the first, 1.41 for the second.

First: C17U A51G
Second: U19A A22G
The self-cleavage of the first is lower: 0.85 for the first, 1.09 for the second.

Going from C16G A66G to A18G A110G, the self-cleavage falls from 1.14 to 0.21.

Compared with G15C A111U, U19A A59G is higher in self-cleavage: 0.11 for the first, 1.12 for the second.

Going from G15C A94G to C16A A18G, the self-cleavage rises from 0.33 to 1.18.

First: U19A A90G
Second: G15A A114G
The self-cleavage of the first is higher: 0.53 for the first, 0.06 for the second.

Compared with A18G U49C, A18U A117U is lower in self-cleavage: 1.43 for the first, 0.76 for the second.

Going from A18C A82G to C16U U122C, the self-cleavage rises from 0.44 to 1.91.

Going from U19A A111U to C16A U124A, the self-cleavage rises from 0.09 to 0.4.

Compared with C16U A117G, G14U A118U is lower in self-cleavage: 1.84 for the first, 0.4 for the second.

First: G14U A96U
Second: A18U A86G
The self-cleavage of the first is higher: 1.13 for the first, 1.01 for the second.

First: A18U A27G
Second: G15C U43C
The self-cleavage of the first is lower: 1.13 for the first, 1.93 for the second.

Going from U19A A56G to U19A A55G, the self-cleavage rises from 1.6 to 1.79.

Going from A18G C61U to A18G U130A, the self-cleavage rises from 1.18 to 1.84.

Going from A18G U130C to A18G U130G, the self-cleavage rises from 1.01 to 1.61.

Going from U19A G53A to A18G G83A, the self-cleavage rises from 1.39 to 1.54.

First: U19A U26C
Second: A18U A56G
The self-cleavage of the first is higher: 2.12 for the first, 1.48 for the second.

Going from C17U G74A to C16U A94G, the self-cleavage rises from 0.13 to 0.94.

Going from C17U G83A to G15A A94G, the self-cleavage rises from 1.07 to 1.73.

First: A18U A60G
Second: C17A A117G
The self-cleavage of the first is lower: 0.68 for the first, 1.53 for the second.

Going from A18G U139A to C17U U37C, the self-cleavage falls from 1.83 to 1.

Going from A18G A69U to A18U A111G, the self-cleavage falls from 1.94 to 0.03.

Compared with A18U A111U, A18U U108C is lower in self-cleavage: 0.12 for the first, 0.01 for the second.

Going from C16G A59U to A18G A116U, the self-cleavage falls from 1.17 to 0.75.

Going from A18G A116G to G14C A82G, the self-cleavage falls from 1.17 to 0.32.

First: A18U U102C
Second: A18U U127A
The self-cleavage of the first is lower: 0.98 for the first, 2.41 for the second.

First: U19A G44A
Second: A18U G58A
The self-cleavage of the first is higher: 2.16 for the first, 1.09 for the second.

Going from U19A G48A to A18U, the self-cleavage falls from 1.35 to 1.11.

Compared with A18G, A18C is lower in self-cleavage: 1.16 for the first, 0.89 for the second.

Compared with G14U G48A, G14C A59G is lower in self-cleavage: 1.52 for the first, 1.46 for the second.

Compared with C16G U49C, A18U G104A is lower in self-cleavage: 0.92 for the first, 0.05 for the second.

Going from C17U A54G to C16G A54G, the self-cleavage falls from 1.02 to 0.89.

Going from A18U A126G to G14C A51G, the self-cleavage falls from 1.86 to 1.01.

Going from A18G A86G to A18G U19G, the self-cleavage falls from 1.99 to 0.71.

Going from A18G A78U to A18G G73U, the self-cleavage falls from 0.35 to 0.23.

First: G15A A47G
Second: A18G U100C
The self-cleavage of the first is lower: 1.33 for the first, 2.34 for the second.

Compared with A18C U19C, A18G C42G is lower in self-cleavage: 1.5 for the first, 1.02 for the second.

First: C16A A55G
Second: A18U U49C
The self-cleavage of the first is lower: 0.37 for the first, 1.47 for the second.

First: A18U U49A
Second: C16G U127A
The self-cleavage of the first is lower: 1.67 for the first, 2.18 for the second.

Compared with U19A U49C, A18G U97C is higher in self-cleavage: 1.38 for the first, 1.42 for the second.

First: C16U U70C
Second: U19A U122C
The self-cleavage of the first is higher: 0.79 for the first, 0.71 for the second.

First: A18G A91G
Second: A18G A96C
The self-cleavage of the first is lower: 1.41 for the first, 1.68 for the second.

Compared with A18G A96G, A18G A96U is higher in self-cleavage: 1.44 for the first, 1.84 for the second.

Compared with U19A G75C, G15C A67G is higher in self-cleavage: 0.16 for the first, 1.63 for the second.

Going from A18G U124G to A18G U124A, the self-cleavage falls from 0.94 to 0.9.

Compared with A18C C71U, C17U A27C is higher in self-cleavage: 0.35 for the first, 0.44 for the second.

Going from A18G A22U to A18G A22G, the self-cleavage falls from 1.95 to 1.01.

Going from C17G G79A to U19A A114U, the self-cleavage falls from 0.18 to 0.04.

First: U19A A114G
Second: C16A A89G
The self-cleavage of the first is lower: 0.55 for the first, 1.37 for the second.

Compared with U19A U124C, U19A A96U is higher in self-cleavage: 0.9 for the first, 1.41 for the second.

Going from A18G C85U to G14C U103C, the self-cleavage rises from 0.98 to 1.13.

First: A18C U131C
Second: U19A U87C
The self-cleavage of the first is lower: 0.73 for the first, 0.97 for the second.

Compared with A18U U39A, A18U U39G is lower in self-cleavage: 1.05 for the first, 0.98 for the second.

Compared with A18U U39C, A18U A114U is lower in self-cleavage: 1.81 for the first, 0.08 for the second.

Going from A18U A114C to A18G A126G, the self-cleavage rises from 0.03 to 0.8.

Going from C16G A78G to C16G A78U, the self-cleavage rises from 0.55 to 0.66.

First: A18G A111G
Second: A18G U120A
The self-cleavage of the first is lower: 0.03 for the first, 2.34 for the second.

Going from A18G U120C to A18C U87C, the self-cleavage falls from 1.16 to 0.67.

In the case of C16A A134G, the self-cleavage is reported as 0.96.
